From patent publication US20220119534A1 (DRAGONFLY THERAPEUTICS, published 2022)
Residue numbers refer to the chain shown, from its start. Names and notes keep the numbering of the source.

Columns and labels:
[1] = biological target: T1, Human CLEC12A-His (recombinant, K244 WT) (human, UniProt Q5QGZ9 65-265); assay: SPR, two-state fit
T1 construct: Made in house (Dragonfly Tx); also called hCLEC12A; hCLEC12A-His; not shown: His tag
T1 sequence: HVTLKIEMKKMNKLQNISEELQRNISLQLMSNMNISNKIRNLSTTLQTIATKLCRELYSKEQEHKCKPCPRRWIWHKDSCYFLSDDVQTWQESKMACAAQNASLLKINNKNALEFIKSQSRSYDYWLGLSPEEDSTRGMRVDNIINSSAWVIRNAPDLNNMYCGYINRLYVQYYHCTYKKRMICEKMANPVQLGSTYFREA

Human CLEC12A-K244Q-His = biological target: T2, Human CLEC12A-K244Q-His (human, UniProt Q5QGZ9 65-265); assay: SPR, two-state fit
T2 construct: also called hCLEC12A (Q244); CLEC12A (Q244); not shown: His tag
T2 chain: T1 sequence with K180Q

[2] = biological target: T3, Human CLEC12A expressed on cells (Ba/F3-hCLEC12A, PL21, HL60) (human, UniProt Q5QGZ9 1-265); assay: cell-based or functional assay
T3 sequence: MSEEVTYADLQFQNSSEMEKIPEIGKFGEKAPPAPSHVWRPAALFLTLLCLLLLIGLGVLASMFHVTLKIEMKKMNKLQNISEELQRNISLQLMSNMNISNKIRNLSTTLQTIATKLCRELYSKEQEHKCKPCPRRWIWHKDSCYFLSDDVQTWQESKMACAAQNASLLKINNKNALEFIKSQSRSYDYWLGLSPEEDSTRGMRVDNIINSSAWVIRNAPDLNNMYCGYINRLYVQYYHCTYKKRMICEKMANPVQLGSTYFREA

[3] = biological target: T4, mFc-hNKG2D (recombinant mFc-tagged human NKG2D dimer) (human, UniProt P26718 73-216); assay: SPR; after pH 8, 40C, 2 wks (n = 2)
T4 construct: extracellular domain; Made in house; not shown: mouse Fc tag
T4 sequence (looked up): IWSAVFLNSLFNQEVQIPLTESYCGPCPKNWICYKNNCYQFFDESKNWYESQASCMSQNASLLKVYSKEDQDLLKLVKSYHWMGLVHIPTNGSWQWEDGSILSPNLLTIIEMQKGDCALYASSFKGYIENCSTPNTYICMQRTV

[4] = biological target: T1, Human CLEC12A-His (recombinant, K244 WT); assay: SPR, two-state fit (ka1); control sample
[5] = biological target: T1, Human CLEC12A-His (recombinant, K244 WT); assay: SPR, two-state fit; after pH 8, 40C, 2 wks
[6] = biological target: T1, Human CLEC12A-His (recombinant, K244 WT); assay: HuProt human proteome microarray, AB0089 at 1 µg/ml
[7] = biological target: T5, ECDHDC1 (HuProt array JHU25034.P240F11) (human); assay: as above
T5 construct: Name as printed; may be a misprint of a gene name

[8] = biological target: BC089418 (HuProt array JHU16002.P168E09) (human); assay: as above

T5 sequence (Q9NTX5 whole entry): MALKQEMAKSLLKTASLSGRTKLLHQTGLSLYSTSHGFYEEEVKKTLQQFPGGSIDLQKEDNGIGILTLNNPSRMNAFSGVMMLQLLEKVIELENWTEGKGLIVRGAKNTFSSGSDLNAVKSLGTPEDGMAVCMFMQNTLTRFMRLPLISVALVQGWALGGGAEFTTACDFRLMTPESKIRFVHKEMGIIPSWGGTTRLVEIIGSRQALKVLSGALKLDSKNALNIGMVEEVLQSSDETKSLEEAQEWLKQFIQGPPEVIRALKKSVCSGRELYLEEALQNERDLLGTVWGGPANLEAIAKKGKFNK

Kd [1]: 0.6 nM
Kd (Human CLEC12A-K244Q-His): 1.17 nM
Kd [3]: 983 nM
koff [3]: 0.127 s⁻¹
kon [3]: 130000 M⁻¹ s⁻¹
kon [4]: 8.87e+06 M⁻¹ s⁻¹
Kd [5]: 0.9 nM
Z score [6]: 151
Z score [7]: 3.75
Z score [8]: 3.7
B1: AB0089 TriNKET (bispecific antibody, human IgG1, kappa)
chain: QLQLQESGPGLVKPSETLSLTCTVSGFSLTNYGLHWIRQPPGKCLEWIGVIWVGGATDYNPSLKSRVTISVDTSKNQFSLKLSSVQAADTAVYYCAKGDYGDTLDYWGQGTLVTVSSGGGGSGGGGSGGGGSGGGGSDIQMTQSPSSLSASVGDRVTITCHASQNINFWLSWYQQKPGKAPKLLIYEASNLHTGVPSRFSGSGSGTDFTLTISSLQPEDFATYYCQQSHSYPLTFGCGTKLEIKGSDKTHTCPPCPAPELLGGPSVFLFPPKPKDTLMISRTPEVTCVVVDVSHEDPEVKFNWYVDGVEVHNAKTKPREEQYNSTYRVVSVLTVLHQDWLNGKEYKCKVSNKALPAPIEKTISKAKGQPREPRVYTLPPCRDELTKNQVSLTCLVKGFYPSDIAVEWESNGQPENNYKTTPPVLVSDGSFTLYSKLTVDKSRWQQGNVFSCSVMHEALHNHYTQKSLSLSPG
heavy: EVQLVESGGGLVKPGGSLRLSCAASGFTFSSYSMNWVRQAPGKGLEWVSSISSSSSYIYYADSVKGRFTISRDNAKNSLYLQMNSLRAEDTAVYYCARGAPIGAAAGWFDPWGQGTLVTVSSASTKGPSVFPLAPSSKSTSGGTAALGCLVKDYFPEPVTVSWNSGALTSGVHTFPAVLQSSGLYSLSSVVTVPSSSLGTQTYICNVNHKPSNTKVDKKVEPKSCDKTHTCPPCPAPELLGGPSVFLFPPKPKDTLMISRTPEVTCVVVDVSHEDPEVKFNWYVDGVEVHNAKTKPREEQYNSTYRVVSVLTVLHQDWLNGKEYKCKVSNKALPAPIEKTISKAKGQPREPQVCTLPPSRDELTENQVSLTCLVKGFYPSDIAVEWESNGQPENNYKTTPPVLDSDGSFFLYSWLTVDKSRWQQGNVFSCSVMHEALHNHYTQKSLSLSPG
light: DIQMTQSPSSVSASVGDRVTITCRASQGISSWLAWYQQKPGKAPKLLIYAASSLQSGVPSRFSGSGSGTDFTLTISSLQPEDFATYYCQQGVSFPRTFGGGTKVEIKRTVAAPSVFIFPPSDEQLKSGTASVVCLLNNFYPREAKVQWKVDNALQSGNSQESVTEQDSKDSTYSLSSTLTLSKADYEKHKVYACEVTHQGLSSPVTKSFNRGEC
notes: F3' format heterodimer of three chains; human IgG1 Fc with EW-RVT and Y349C/S354C mutations; also called AB0089 Lot AB0089-002; CLEC12A TriNKET AB0089
EC50, KHYG-1-CD16aV mediated cytotoxicity, HL60 cells [2]: 0.27 nM
EC50, KHYG-1-CD16aV mediated cytotoxicity, PL21 cells [2]: 0.16 nM
